Experimental data: patent publication US20220017630A1 (JIANGSU SIMCERE PHARMACEUTICAL, published 2022)

T1: human TNFR2 (Novoprotein, Catalog No. C830) (human, UniProt P20333 23-257, limits assumed)
T1 construct: construct not described; also called TNFR2 protein
T1 sequence (looked up): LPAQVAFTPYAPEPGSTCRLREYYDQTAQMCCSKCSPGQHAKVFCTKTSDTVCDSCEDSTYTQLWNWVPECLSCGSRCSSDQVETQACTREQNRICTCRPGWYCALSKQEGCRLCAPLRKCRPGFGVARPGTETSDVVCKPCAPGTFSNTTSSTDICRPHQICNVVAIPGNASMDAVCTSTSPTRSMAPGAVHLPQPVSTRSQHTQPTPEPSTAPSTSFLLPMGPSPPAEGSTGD

T2: human CREG-His protein (human, UniProt O75629 32-220, limits assumed)
T2 construct: Control antigen in ELISA; also called control human CREG-His
T2 sequence (looked up): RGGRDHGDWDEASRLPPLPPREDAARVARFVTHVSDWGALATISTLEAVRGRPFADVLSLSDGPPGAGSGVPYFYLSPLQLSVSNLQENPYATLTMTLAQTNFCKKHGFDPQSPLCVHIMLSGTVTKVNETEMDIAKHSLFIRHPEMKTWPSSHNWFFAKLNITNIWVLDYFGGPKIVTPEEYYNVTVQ

T3: mouse TNFR2 (mouse, UniProt P25119 23-258, limits assumed)
T3 sequence (looked up): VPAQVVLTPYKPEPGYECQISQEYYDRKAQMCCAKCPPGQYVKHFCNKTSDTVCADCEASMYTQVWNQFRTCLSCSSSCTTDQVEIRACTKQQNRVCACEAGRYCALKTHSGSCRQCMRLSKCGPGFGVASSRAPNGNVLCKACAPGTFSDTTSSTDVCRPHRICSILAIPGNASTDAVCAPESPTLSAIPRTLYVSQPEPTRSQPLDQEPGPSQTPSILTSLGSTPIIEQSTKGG

T4: human TNFR2 on the cell surface (CHO-TNFR2 cells; human Treg cells) (human, UniProt P20333 23-461)
T4 construct: whole, on cells; The assay field of each row says which cells; also called TNFR2-CHO cell; TNFR2 on Treg cells
T4 sequence (looked up): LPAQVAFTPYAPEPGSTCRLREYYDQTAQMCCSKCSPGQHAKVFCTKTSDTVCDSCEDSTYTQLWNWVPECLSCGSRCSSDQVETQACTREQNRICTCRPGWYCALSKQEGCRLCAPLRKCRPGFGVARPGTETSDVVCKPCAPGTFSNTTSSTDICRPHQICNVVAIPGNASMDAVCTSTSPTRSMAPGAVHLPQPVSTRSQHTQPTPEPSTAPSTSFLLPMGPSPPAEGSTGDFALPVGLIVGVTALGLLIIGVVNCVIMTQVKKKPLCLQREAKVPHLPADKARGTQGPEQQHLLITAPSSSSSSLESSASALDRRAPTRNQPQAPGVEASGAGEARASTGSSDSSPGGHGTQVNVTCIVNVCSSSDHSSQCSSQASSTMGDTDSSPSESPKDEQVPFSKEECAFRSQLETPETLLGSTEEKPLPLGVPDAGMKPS

T5: Human TNFR2 recombinant protein (Sino 10417-H08H) (human, UniProt P20333 23-257)
T5 construct: also called hTNFR2 (His tag)
T5 sequence (looked up): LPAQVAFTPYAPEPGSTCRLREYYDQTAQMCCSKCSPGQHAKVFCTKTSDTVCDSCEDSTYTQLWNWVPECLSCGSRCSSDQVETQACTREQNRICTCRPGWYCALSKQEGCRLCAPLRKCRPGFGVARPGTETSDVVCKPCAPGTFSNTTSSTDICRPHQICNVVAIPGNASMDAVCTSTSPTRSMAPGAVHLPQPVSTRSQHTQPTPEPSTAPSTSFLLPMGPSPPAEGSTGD

T6: cynomolgus TNFR2 (Sino 90102-C08H) (cynomolgus, UniProt A0A2K5VET2 132-366)
T6 construct: also called CynoTNFR2 (His tag)
T6 sequence: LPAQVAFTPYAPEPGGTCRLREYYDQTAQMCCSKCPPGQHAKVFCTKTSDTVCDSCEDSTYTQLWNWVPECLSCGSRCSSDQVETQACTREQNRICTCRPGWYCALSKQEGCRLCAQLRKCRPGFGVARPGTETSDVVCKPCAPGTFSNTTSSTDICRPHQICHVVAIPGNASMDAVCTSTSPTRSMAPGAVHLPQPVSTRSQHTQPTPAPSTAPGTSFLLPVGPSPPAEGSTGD

B1: TNFR2 antibody #125 (antibody, V domains shown)
VH: EVQLQESGGGLVQPGGSLNLSCAASGFAFSIYDLSWVRQTPEKRLEWVAYINNGGISTYYSDTVKGRFTISRDNAKNTLYLQMSSLKSEDTAMYYCVRGPFYGSANYFDYWGQGTTVTVSS
VL: DIQMTQSPASLSLSVGETVTITCRASENIYSNLAWYQQKQGKSPQLLVYDATKLAEGVPSRFSGSESGTQYSLKINSLQSEDFGTYYCQHFWVTPWTFGGGTKLEIK
B2: TNFR2 antibody #001 (antibody, V domains shown)
VH: EVQLQESGGGLVQPGGSLNLSCAASGFAFSTYDLSWVRQTPEKRLEWVAYINNGGISTYYSDTVKGRFTISRDNAKNTLYLQMSSLKSEDTAMYYCVRGPFYGSANYFDYWGQGTTVTVSS
VL: EIVMTQSPASLSLSVGETVTITCRTSESIYSNLPWYQQKQGKSPQLLVYDATKLAEGVPSRFSGSESGTQYSLKINSLQSEDFGTYYCQHFWVTPWTFGGGTKLEIK
notes: also called antibody #1
B3: TNFR2 antibody #133 (antibody, V domains shown)
VH: EVQLQESGAELVRSGASVKLSCTASGFNIKDYYIQWVKQRPEQGLEWIGWIDPESGNTKYAPKFQDKATMTADTSSNTAYLQLSGLTSEDSAVYYCNAYYDYDGSMDYWGQGTTVTVSS
VL: DIVMTQSPLSLPVSLGDQASISCRSSQSLVHSNGNTYLHWYLQKPGQSPKLLIYKVSNRFSGVPDRFSGSGSGTDFTLKISRVETDDLGVYFCSQSTHVPTWTFGGGTKLEIK
B4: TNFR2 antibody #219 (antibody, V domains shown)
VH: EVQLQESGAELVRPGASVKLSCKASGYSFTNYWMNWVKQRPGQGLEWIGMIHPSDTETRLNQNFKDKATLTVDKSSSTSYMQLSSPTSEDSAVYYCARGEGLGAARSVSMDYWGQGTTVTVSS
VL: DILMTQSPSSLSASLGDRVTISCRASQDISNYLNWYQQKPDGTVKVLIYYTAILHSGVPSRFSGSGSGTDYSLTISNLEQEDIATYFCQQGNTLPWTFGGGTKLEIK
B5: TNFR2 antibody #226 (antibody, V domains shown)
VH: EVQLQESGAELVRPGASVKLSCKASGYSFTNYWMNWVKQRPGQGLEWIGMIHPSDSETRLNQKFKDKATLTVDKSSSTAYMQLSSPTSEDSAVYYCARGEGLGAARSVSMDYWGQGTTVTVSS
VL: DIQMTQSPSSLSASLGDRVTISCRASQDISNYLNWYQQKPDGTVKVLIYYTALLHSGVPSRFSGSGSGTDYSLTISNLEQEDIATYFCQQGNTLPWTFGGGTKLEIK
B6: TNFR2 antibody #224 (antibody, V domains shown)
VH: EVQLQESGPEIVKPGASVKLSCTASGFNNKDIYMHWVKQRPEQGLEWIGRIDPATGNTKHDPKFQDKATLSSDTSSNTAYLQFSSLTSEDTAVYYCAHSPYGDFGAMDYWGQGTTVTVSS
VL: DIQMTQSPAIMSASLGERVTMTCTASSSVSSNYLHWYQQKPGSSPKLWIYSTSNLPSGVPARFSGSGSGTSYSLTISSMEAEDAATYYCHQYHRSPWTFGGGTKLEIK
B7: TNFR2 antibody #352 (antibody, V domains shown)
VH: EVQLQESGPGLVAPSQSLSITCTVSGFSLTSYGVHWVRQPPGKGLEWLVVIWSDGGTTYNSALKSRLSISKDNSKSQVFLKMNSLQTDDTAMYYCARHDDDGYYAMDYWGQGTTVTVSS
VL: DIVLTQSPSLMSASPGEKVTMTCSASSSVGYMYWYQQKPRSSPKPWIYLTSNLASGVPARFSGSGSGTSYSLTISSMEVEDAATYYCQQWSSDPFTFGSGTKLEIK
B8: TNFR2 antibody #365 (antibody, V domains shown)
VH: EVQLQESGPGLVQPSQSLSITCTVSGFSLTSYGVHWVRQSPGKGLEWLGLIWSDGSPDYSAAFISRLSINKDNSKSQVFFKMNSLQADDTAIYYCARNDDGGDYVMDYWGQGTTVTVSS
VL: EIVLTQSPALMSASPGEKVTMTCSASSSVSYMYWYQQKPRSSPKPWIYLTSNLASGVPARFSGSGSGTSYSLTISSMEAEDAATYYCQQWTSNPLTFGAGTKLEIK
B9: TNFR2 antibody #395 (antibody, V domains shown)
VH: EVQLQESGPVLVQPSQSLSITCTVSGFSLTSYSVHWVRQSPGKGLEWLGVIWSDGGTDYSAAFISRLSISKDNSKSQVFFKMNSLQADDTAIYYCARNDDGGDYAMDYWGQGTTVTVSS
VL: EIVLTQSPALMSASPGEKVTMTCSASSSVSYMYWYQQKPRSSPKPWIYLTSNLASGVPARFSGSGSGTSYSLTISSMEAEDAATYYCQQWSSNPLTFGAGTKLEIK

What was measured:
[1] = biological target: T1, human TNFR2 (Novoprotein, Catalog No. …); test: blocking ELISA, TNFα-biotin on coated human TNFR2; 002# OD / antibody OD x 100
Method: (§1) A microplate was pre-coated with 100 μl/well of 1 μg/ml human TNFR2 (Novoprotein, Catalog No. C830). […] After washing the plate, a Streptavidin-HRP working solution (1:10000 dilution) was added at 100 μl/well, and incubated with shaking at room temperature for 40 min. The plate was washed again, the HRP substrate TMB was added for color development, the termination solution was added to terminate the reaction, and the microplate reader was used to read the absorption value.

human CREG-His protein = biological target: T2, human CREG-His protein; test: ELISA
mouse TNFR2 = biological target: T3, mouse TNFR2; test: ELISA
[2] = biological target: T1, human TNFR2 (Novoprotein, Catalog No. …); test: blocking ELISA, TNFα-biotin on coated human TNFR2, antibody 2 nM
Method: as §1

[3] = biological target: T4, human TNFR2 on the cell surface …; test: flow cytometry, blocking of TNFα-biotin on CHO-TNFR2 cells
[4] = biological target: T5, Human TNFR2 recombinant protein (Sino …); test: ELISA, coated antigen 0.5 ug/ml, antibody 28 ng/ml
Method: (§2) An microplate was pre-coated with 100 μl/well of 0.5 μg/ml human TNFR2 or cynomolgus TNFR2 (the same antigen protein as in Example 4). […] A mouse anti-human IgG Fc-HRP working solution (1:10000 dilution) was added to the plate at 100 μl/well after plate washing, and incubated with shaking at room temperature for 1.0 h. The plate was washed again, a HRP substrate TMB was added for color development prior to the termination of the reaction by adding termination solution. An microplate reader was used to read the absorption value.

[5] = biological target: T6, cynomolgus TNFR2 (Sino 90102-C08H); test: ELISA, coated antigen 0.5 ug/ml, antibody 28 ng/ml
Method: as §2

Binder | % to 002# OD (2 nM) [1] [%] | % to 002# OD (20 nM) [1] [%] | binding result (human CREG-His protein) | binding result (mouse TNFR2) | ELISA OD of antibodies to be tested (2 nM) [2] [OD] | Antibody AUC [3] | ELISA OD [4] [OD] | ELISA OD [5] [OD]
B1 | 113 | 154 | no binding (tested: 28 ng/ml) | no binding (tested: 28 ng/ml) | 0.599 | 37000 | 3.32 | 3.25
B2 | 84.2 | 126 | no binding (tested: 28 ng/ml) | no binding (tested: 28 ng/ml) | 0.805 | 34300 | 2.81 | 2.64
B3 | 74.6 | 110 | no binding (tested: 28 ng/ml) | no binding (tested: 28 ng/ml) | 2.11 | 17300 | 3.12 | 3.18
B4 | 89.7 | 89 | no binding (tested: 28 ng/ml) | no binding (tested: 28 ng/ml) | 0.756 | 14900 | 3.37 | 3.41
B5 | 95.7 | 105 | no binding (tested: 28 ng/ml) | no binding (tested: 28 ng/ml) | 0.709 | 18600 | 3.34 | 3.28
B6 | 101 | 277 | no binding (tested: 28 ng/ml) | no binding (tested: 28 ng/ml) | 1.44 | 40000 | 2.23 | 2.66
B7 | 88.2 | 106 | no binding (tested: 28 ng/ml) | no binding (tested: 28 ng/ml) | 1.78 | 10700 | 3.12 | 3.12
B8 | 124 | 120 | no binding (tested: 28 ng/ml) | no binding (tested: 28 ng/ml) | 1.26 | 10600 | 3.19 | 3.15
B9 | 138 | 178 | no binding (tested: 28 ng/ml) | no binding (tested: 28 ng/ml) | 1.14 | 14900 | 3.17 | 3.15
